Where a chain is given by its changes, count along the chain named.
B1: SR16983-R2-P4-F01 (VHH)
VHH: QLQLVESGGGLVQAGGSLRLSCAASGRTFVGSYVMGWFRQAPGKAREFVAASSRSTGNTVYLDAVKGRFTVSRDDAKNTLYLQMSSLKPEDTAVYYCATRASINYNYANWPYWGQGTQVTVSS
B2: SR16983-R2-P4-G08 (VHH)
VHH: EVQLVESGGGLVQAGGSLRLSCAASGLTSSTYAMAWFRQAPGKEREFVSVIDWRGSTTYTNSVKGRFTISRDNGKNTVYLQMNSLQPEDTALYYCAARASPGYVGSLYPYWGRGTQVTVSS
B3: SR16983-R2-P4-E11 (VHH)
VHH: QLQLVESGGGLVQAGGSLRLSCAASGTTFSFVYMGWYRQAPGNQRDLVARISRDGSTNYLDSVKGRFTISGDNAKNTVYLQMNSLKPEDTARYYCFYNGHLNKWGRGTQVTVSS
B4: SR16983-R3-P4-E11 (VHH)
VHH: B3 VHH with S7F, T27S, V32N, R53S, D54G, S56I, L60A, H100Y, R106Q
B5: SR16983-R3P2D01 (VHH)
VHH: B3 VHH with F29S, R53S, L60A, L101V, R106Q
B6: SR16983-R3P2A08 (VHH)
VHH: QLQLVESGGGLVQPGGSLRLSCAASGFTFSTKWMYWVRQGPGKGLERVAAIDASGGSTYYADSVKGRFTISRDNSENTVYLQMNSLESADTAVYYCARSEGGLFRGRGTQVTVSA
B7: SR16983-R2-P3-F01 (VHH)
VHH: EVQLVESGGGLVQPGGSLRLSCAASGFTFSTKWMYWVRQGPGKGLEWVSTIDASGGSTYYADSVKGRFTISRDNTEKKVYLQMNSLESADTAVYYCVRSAGGQFRGRGTQVTVSS
B8: SR16983-R2-P3-F10 (VHH)
VHH: B6 VHH with L2V, A23K, E76D, L103Q, R107Q, A115S
B9: SR16983-R2P1C12 (VHH)
VHH: B7 VHH with E1Q, T31M, A53T, G56S, T75S, E76K, K77N, K78T, V97A, Q103L
B10: SR16983-R3P2A5 (VHH)
VHH: B6 VHH with V79L
B11: SR16983-R3-P3-G04 (VHH)
VHH: QLQLVESGGGLVQAGGSLRLSCTASGSTVRVTAGGWYRQAPGNERELVADIDNGGRPTYADSVKGRFTISRDNAKNAVDLQMNNLKPEDTAVYYCFVIAIPDSAPRPRAYWGQGTQVTVSS
B12: SR16983-R3-P4-G09 (VHH)
VHH: B11 VHH with T23A, A40T, R56S, P57T, N84S, Y94R, A109S, Q116E
B13: SR16983-R4-P1-C10 (VHH)
VHH: QVQLVESGGGLVQAGGSLRLSCVAYGSTFSINVFAWYRQAPGEQRELGELVAFIGRSGTTKYGDSVKGRFTISRDNAKNTVYLQMDSLRPEDTAVYYCNLGDYWGQGTQVTVSS
B14: SR16983-R2-P4-E08 (VHH)
VHH: QLQLVESGGGLVQAGGSLTLSCAASGFTLDDYAIGWFRQAPGKEREGVSCIATSDGSTYYADSVKGRFTISSDNAKNTVYLQMNSLKPEDTAVYYCARGGLLLPKPELFDFRGQGTQVTVSP
B15: SR16983-R2-P4-C02 (VHH)
VHH: QVQLVESGGGLVQAGGSLRLSCTTSGSTFSITAGGWYRQAPGKQRELVADIANDGSTTSADSVKGRFTISRDNAKNTVELQMSSLKLEDTAVYYCFVVGKSDSMPRARAYWGQGTQVTVSS
B16: SR16983-R3-P5-D08 (VHH)
VHH: EVQLVESGGGLVQAGGSLRLSCTGSGSTFSVTAGGWYRQAPGKQRELVADIANDGSTTYLDFVKGRFTISRDNAKNSVDLQMNSLKPEDTAVYYCFVVGISDSTPRPRAYWGQGTQVTVSS
B17: SR16983-R3P2H09 (VHH)
VHH: B15 VHH with Q1E, L20V, A40T, Q44E, S59Y, D61N, V92A, Y94R, K100I, A107P
B18: SR16983-R2-P3-B01 (VHH)
VHH: QLQLVESGGGLVQAGGSLRLSCAASGRTFGTYVIGWFRQAPGKEREFVAAFSRSTGNTVYPDSVKGRFTISRDDAKNTVTLQMNSLKPEDTAVYYCAARASINYNYANWPYWGQGTQVTVSS
B19: SR16983-R2-P3-E04 (VHH)
VHH: B18 VHH with F29V, T31S, I34M, V48L, F51S, P61A, T69S, V79L, T80Y, A98T
B20: SR16983-R2-P3-F12 (VHH)
VHH: B18 VHH with L2V, I34M, N57S, V59T, P61A, V79L, T80Y, A98T
B21: SR16983-R2-P4-F03 (VHH)
VHH: B18 VHH with L2V, T31S, I34M, V48L, N57S, P61A, R72K, V79L, T80Y, A98T
B22: SR16983-R3-P3-C10 (VHH)
VHH: B18 VHH with F29V, T31S, V33A, I34M, V48L, N57P, P61A, V79L, T80Y
B23: SR16983-R3-P3-H10 (VHH)
VHH: QVQLVESGGGLVQAGDSLRLSCAASTRTVGTYVMGWFRQAPGKERELVAASSRSTGNTVYPDSVKGRFTVSRDDAKNALYLQMNSLKPEDTAIYYCAARASINYNYANWPYWGQGTQVTVSS
B24: SR16983-R3-P5-H06 (VHH)
VHH: B18 VHH with T80Y
B25: SR16983-R3P2D06 (VHH)
VHH: B18 VHH with A14P, F29V, T31S, I34M, F47L, V48L, F51S, P61A, V79L, T80Y
B26: SR16983-R3-P3-E02 (VHH)
VHH: QLQLVESGGGLVQAGGSLRLSCVLSGNTFGRNVITWYRQPPGKQREFIAMITSSGSTRYADSVKGRFTMSRDTAKNTAFLQMSSLKVEDTAVYYCWTAIAGQGEYWGQGTQVTVSS
B27: SR16983-R4-P1-C12 (VHH)
VHH: QLQLVESGGGLVQAGGSLRLSCAASGSTFSINVFAWYRQGSGEQRELVAFIGRSGTARYGDSVKGRFSISRDNAKKTVYLQMDSLRPEDTAVYYCNLGDYWGQGTQVTVSS
B28: SR16983-R3P2D02 (VHH)
VHH: QLQLVESGGGLVQPGGSLRLSCAASGFTLDGYAIGWFRQAPGKEREGVSSIATSDGSTYYADSVKGRFTISGDDAKNTVYLHMNSLKPEDTAVYYCARGGSLVLRPKYYDYWGQGTQVTVSS
B29: SR16983-R2-P3-E05 (VHH)
VHH: EVQLVESGGGLVQAGGSLRLSCAASGLTASTYVMAWFRQAPGKERDFVSLIDWRGEPTYANSVKGRFTISRDNGKNTVFLQMNSLRPEDTALYYCAVRASPGYVASLYPYWGRGTQVTVSS
B30: SR16983-R2-P2-D01 (VHH)
VHH: QLQLVESGGGLVQAGGSLRLSCVASGRTFSTYAMGWFRQAPGKEREFVGAIRWDGGSTNYANSVKGRFTISRDNAKNTVYLQVNSLKPEDTAVYYCAARASINYNYANWPYWGRGTQVTVSS
B31: SR16983-R2-P5-D01 (VHH)
VHH: QLQLVESGGGLVQAGGSLRLSCVASGTTFTIEDIGWYRLAPGKQRELVAIISGGNTNYADSVKGRFTISRDNTKNTVYLQMNSLKPEDTAVYYCNGRTKATVKWGRGTQVTVSS
B32: SR16983-R3P2H10 (VHH)
VHH: B6 VHH with S54G

Each binder was assayed against T1, human protein C (PC) zymogen (human, UniProt P04070 43-197; P04070 200-461) (assay: ELISA screen, PC-coated wells, OD450, n=2 [Continued]).
T1 construct: Bought
T1 sequence (P04070 43-197, chain 1 of 2): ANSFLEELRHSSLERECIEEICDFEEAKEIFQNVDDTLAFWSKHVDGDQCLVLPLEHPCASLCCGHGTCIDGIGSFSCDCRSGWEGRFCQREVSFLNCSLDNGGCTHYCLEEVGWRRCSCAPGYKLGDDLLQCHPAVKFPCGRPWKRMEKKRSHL
T1 sequence (P04070 200-461, chain 2 of 2): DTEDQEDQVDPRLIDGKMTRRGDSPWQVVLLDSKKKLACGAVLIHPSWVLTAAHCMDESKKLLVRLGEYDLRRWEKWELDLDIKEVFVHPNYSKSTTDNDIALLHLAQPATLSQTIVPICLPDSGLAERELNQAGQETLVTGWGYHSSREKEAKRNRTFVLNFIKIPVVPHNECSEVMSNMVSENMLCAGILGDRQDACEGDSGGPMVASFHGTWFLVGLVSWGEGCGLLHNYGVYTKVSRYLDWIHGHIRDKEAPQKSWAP

Binder	binding result
B1	no binding
B2	no binding
B3	no binding
B4	no binding
B5	no binding
B6	no binding
B7	no binding
B8	no binding
B9	no binding
B10	no binding
B11	no binding
B12	no binding
B13	no binding
B14	no binding
B15	no binding
B16	no binding

Binder	binding result
B17	no binding
B18	no binding
B19	no binding
B20	no binding
B21	no binding
B22	no binding
B23	no binding
B24	no binding
B25	no binding
B26	no binding
B27	no binding
B28	no binding
B29	no binding
B30	no binding
B31	no binding

These binders were tested against T2, human APC-PPACK (active site-blocked APC) (human, UniProt P04070 43-461, active site bound by the tripeptide inhibitor Phe-Pro-Arg-chloromethylketone (PPACK)) (assay: ELISA).
T2 construct: Bought (Haematologic Technologies)
T2 sequence (P04070 other isoform, or with tags, fused parts or gaps): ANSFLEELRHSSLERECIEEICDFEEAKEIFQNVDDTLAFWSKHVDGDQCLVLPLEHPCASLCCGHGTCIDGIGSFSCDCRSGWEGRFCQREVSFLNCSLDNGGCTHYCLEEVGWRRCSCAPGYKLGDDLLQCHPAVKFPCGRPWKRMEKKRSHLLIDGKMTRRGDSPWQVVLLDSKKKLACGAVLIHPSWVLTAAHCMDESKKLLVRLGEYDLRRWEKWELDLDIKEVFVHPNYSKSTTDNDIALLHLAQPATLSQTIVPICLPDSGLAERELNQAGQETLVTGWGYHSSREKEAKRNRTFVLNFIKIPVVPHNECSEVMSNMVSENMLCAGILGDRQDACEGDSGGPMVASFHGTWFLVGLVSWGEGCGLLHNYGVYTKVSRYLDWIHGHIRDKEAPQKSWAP

Binder	binding result
B1	binds
B2	binds
B3	binds
B4	binds
B5	binds
B6	binds
B7	binds
B8	binds
B9	binds
B10	binds
B11	binds
B12	binds
B13	binds
B14	binds
B15	binds
B16	binds

Binder	binding result
B17	binds
B18	binds
B19	binds
B20	binds
B21	binds
B22	binds
B23	binds
B24	binds
B25	binds
B26	binds
B27	binds
B28	binds
B29	binds
B30	binds
B31	binds

The binders below were run against T1, human protein C (PC) zymogen (assay: ELISA screen, PC-coated wells, OD450, n=2).

Binder	binding result
B32	no binding

Reference: patent publication US20250163183A1 (COAGULANT THERAPEUTICS, published 2025)
